According to paper PMC7311918:

Molecular target: SARS-CoV-2 S 2P trimer (S ectodomain, residues 16-1206) (SARS-CoV-2) (UniProt P0DTC2)
Test: SEC-MALS

With “SARS-CoV-2 S 2P trimer (S ectodomain, residues 16-1206) (from UniProt P0DTC2 16-1206) (natural protein)” the stoichiometry N was 3.
